This passage reports binding result and Kd results from PMC11211324 (Cell Discovery, 2024).

In assay [1] the target is T1, purified KRAS (Homo sapiens (assumed), isoform 2B …, UniProt P01116-2, biotin (chemically labelled with EZ-link-Sulfo-NHS-biotin) in the BLI assay only).
The target in assay [2] is T1, purified KRAS. Description: BLI; biotinylated KRAS immobilised on streptavidin biosensors, KDCs (TKD, TKDm) in solution in a 2-fold dilution series; Octet Red96, 30 °C, PBST (1x PBS, 0.1% Tween 20); 100 s association, 200 s dissociation; 1:1 model, global fit. The settings on record: both partners purified. In general terms: Biolayer interferometry detects binding as a change in optical thickness at a sensor tip.

A further assay has as its target T2, purified NRAS (Homo sapiens (assumed), UniProt P01111).
T2 construct: NRAS, purified, bought; Catalogue numbers are printed in the order HRAS/NRAS; source: bought: MedChemExpress
The experiment in a line: BLI; TKD with purified HRAS or NRAS; Octet Red96, 30 °C, PBST; which partner was on the biosensor is not clearly told. The following applies: both partners purified.

In another assay the target is T3, purified HRAS (Homo sapiens (assumed), UniProt P01112).
T3 construct: HRAS, purified, bought; Catalogue numbers are printed in the order HRAS/NRAS; source: bought: MedChemExpress
T3 sequence (P01112 whole entry): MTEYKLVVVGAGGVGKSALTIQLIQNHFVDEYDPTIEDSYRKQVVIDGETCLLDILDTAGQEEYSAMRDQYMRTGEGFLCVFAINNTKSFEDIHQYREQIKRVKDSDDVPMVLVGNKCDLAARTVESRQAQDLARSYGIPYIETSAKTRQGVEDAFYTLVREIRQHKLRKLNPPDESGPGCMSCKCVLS
Described as above. The following applies: both partners purified.

Usually Kd stands for a measure of binding affinity in units of concentration. Read a low Kd as tighter binding.

T1 sequence (P01116 whole entry, canonical isoform): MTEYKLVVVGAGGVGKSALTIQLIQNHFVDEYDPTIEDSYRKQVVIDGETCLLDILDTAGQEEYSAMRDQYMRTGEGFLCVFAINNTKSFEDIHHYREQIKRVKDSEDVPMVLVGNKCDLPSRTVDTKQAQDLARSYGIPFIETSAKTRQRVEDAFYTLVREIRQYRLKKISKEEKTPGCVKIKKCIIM
T2 sequence (P01111 whole entry): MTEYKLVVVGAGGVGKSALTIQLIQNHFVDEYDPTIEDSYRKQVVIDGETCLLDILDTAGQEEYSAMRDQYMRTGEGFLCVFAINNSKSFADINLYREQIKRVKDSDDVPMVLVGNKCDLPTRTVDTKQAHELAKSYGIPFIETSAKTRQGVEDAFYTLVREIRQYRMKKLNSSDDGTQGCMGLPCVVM

B1: 3 (VHH)
VHH: DVQLQESGGGLVQPGGSLRLNCAASGFVFSDYAMSWVRQAPGKGLEWVSAIYGGGYNPIYTDSVKGRFTISRDNAKNTLYLQIRTLKPEDTGVYYCAKEQTFGTFLNDTYYSPSYYDWGQGTQVTVSS
B1: the binding result with purified KRAS [1] is on record as “binds”.

B2: 5 (VHH)
VHH: DVQLQESGGGLVQPGGSLRLNCAASGFVFSDYAMSWVRQAPGKGLEWVSAIYGGGYNPIYADSVKGRFTISRDNAKNTLYLQIRTLKPEDTGVYYCAKEQTFGTFLNDTYYSPSYYDWGQGTQVTVSS
As to B2, the binding result with purified KRAS [1] is given as “binds”.

B3: 2 (VHH)
VHH: DVQLQESGGGLVQAGGSLRLSCVAPARTVSTYPTGWFRRAPGKEREFVARINFSGGITNYADSVKGRFTISRNNTKNTVYLQMNSLKPEDTAVYYCGGGSTTWADGIPINFDYWGQGTQVTVSS
With B3, the binding result with purified KRAS [1] is on record as “binds”.

B4: TKDm (negative control of TKD with mutant CTM peptide) (VHH)
VHH: DVQLQESGGGLVQAGGSLRLSCVASGRTFSTYPTGWFRQAPGKEREFVARINLSGGITNYADSVKGRFTISRDNAKNTVYLQMNSLKPEDTAVYYCGGGSTTWAGGIPTNFDYWGQGTQVTVSS
notes: cancer cell-penetrating peptide BR2 (derived from buforin IIb); KRAS nanobody, same as in TKD; also called TKDm-His; source: for co-IP the purified protein was added to living cells
In the assay with purified KRAS [2], B4 came in with a Kd of 6.6 nM.

B5: tumor-targeting KRAS degrader (TKD) (VHH)
VHH: DVQLQESGGGLVQAGGSLRLSCVASGRTFSTYPTGWFRQAPGKEREFVARINLSGGITNYADSVKGRFTISRDNAKNTVYLQMNSLKPEDTAVYYCGGGSTTWAGGIPTNFDYWGQGTQVTVSS
notes: cancer cell-penetrating peptide BR2 (derived from buforin IIb); KRAS nanobody from an alpaca immunised with KRAS (1-169 aa); Fusion of BR2, KRAS nanobody and CTM; also called KDC 1; KRAS degrader candidate 1; source: for co-IP the purified protein was added to living cells
As to B5, the binding result with purified NRAS and with purified HRAS was “no binding” throughout. The molecule also returned a Kd with purified KRAS [2] of 6.57 nM.

B6: 6 (VHH)
VHH: DVQLQESGGGLVEPGGSLRLSCAASGSIFGLDVMGWYRQAPGKQRELVAIITRGGTANYADSGKGRFTISSDYAKKTVSLQMGSLIPEDTAVYYCSALVLGTNYWGQGTQVTVSS
As to B6, in the assay with purified KRAS [1], the binding result is “binds”.

B7: 4 (VHH)
VHH: DVQLQESGGGLVQPGGSLRLSCAASGFTFGNTGMSWVRQAPGKGLEWVSGISSGGAFSFYADSVKGRFTGSDNSAKNTVYLQMNSLQPEDTGVYYCAAGPRVALLTTPWTNPQSYHYWGQGTQVTVSS
Turning to B7, the binding result with purified KRAS [1] is “binds”.
